Results from article PMC6134095 (2018).

B1: FtsN (57–319), periplasmic domain of E. coli FtsN (domain or fragment)
chain: HKKEESETLQSQKVTGNGLPPKPEERWRYIKELESRQPGVRAPTEPSAGGEVKTPEQLTPEQRQLLEQMQADMRQQPTQLVEVPWNEQTPEQRQQTLQRQRQAQQLAEQQRLAQQSRTTEQSWQQQTRTSQAAPVQAQPRQSKPASSQQPYQDLLQTPAHTTAQSKPQQAAPVARAADAPKPTAEKKDERRWMVQCGSFRGAEQAETVRAQLAFEGFDSKITTNNGWNRVVIGPVKGKENADSTLNRLKMAGHTNCIRLAAGG
B2: FtsB (22–103), periplasmic domain of E. coli FtsB (domain or fragment)
chain: GKNGIHDYTRVNDDVAAQQATNAKLKARNDQLFAEIDDLNGGQEALEERARNELSMTRPGETFYRLVPDASKRAQSAGQNNR
B3: FtsN (58–320) plus FtsB (22–103), bound together (other)
chain 1: GKNGIHDYTRVNDDVAAQQATNAKLKARNDQLFAEIDDLNGGQEALEERARNELSMTRPGETFYRLVPDASKRAQSAGQNNR
chain 2: HKKEESETLQSQKVTGNGLPPKPEERWRYIKELESRQPGVRAPTEPSAGGEVKTPEQLTPEQRQLLEQMQADMRQQPTQLVEVPWNEQTPEQRQQTLQRQRQAQQLAEQQRLAQQSRTTEQSWQQQTRTSQAAPVQAQPRQSKPASSQQPYQDLLQTPAHTTAQSKPQQAAPVARAADAPKPTAEKKDERRWMVQCGSFRGAEQAETVRAQLAFEGFDSKITTNNGWNRVVIGPVKGKENADSTLNRLKMAGHTNCIRLAAGG

How the values were obtained:
[1] = molecular target: T1, FtsQ (58–276), periplasmic domain of E. coli FtsQ (Escherichia coli strain K-12, UniProt P06136 58-276); test: SPR
T1 sequence (P06136 58-276): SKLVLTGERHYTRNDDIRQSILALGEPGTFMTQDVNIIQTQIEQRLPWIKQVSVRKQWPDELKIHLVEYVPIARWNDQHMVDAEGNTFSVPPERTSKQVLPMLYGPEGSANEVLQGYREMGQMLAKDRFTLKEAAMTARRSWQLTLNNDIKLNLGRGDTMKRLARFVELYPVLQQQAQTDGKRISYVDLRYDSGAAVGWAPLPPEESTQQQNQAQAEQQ

[2] = molecular target: T1, FtsQ (58–276), periplasmic domain of E. …; test: SPR; major phase
[3] = molecular target: T1, FtsQ (58–276), periplasmic domain of E. …; test: SPR; minor phase
[4] = molecular target: T1, FtsQ (58–276), periplasmic domain of E. …; test: SPR; minor phase; remark: listed apart in the source

Binder	koff [1] [s⁻¹]	koff [2] [s⁻¹]	koff [3] [s⁻¹]	Kd [4] [µM]
B1	0.076			
B2		0.00021	0.031	11
B3		8.3e-05	0.03	5.6
